Source: WO2011147834A1 (dated 2011)
“And” between values parts separate entries of the source, which are not always exact repeats. Equal entries are not always repeated.

Key:
cynomolgus CD19 = target: T1, cynomolgus CD19 (cynomolgus, UniProt A0A2K5W8L9 20-557); assay: FACS on B-cells of the respective species
T1 construct: whole, on cells
T1 sequence: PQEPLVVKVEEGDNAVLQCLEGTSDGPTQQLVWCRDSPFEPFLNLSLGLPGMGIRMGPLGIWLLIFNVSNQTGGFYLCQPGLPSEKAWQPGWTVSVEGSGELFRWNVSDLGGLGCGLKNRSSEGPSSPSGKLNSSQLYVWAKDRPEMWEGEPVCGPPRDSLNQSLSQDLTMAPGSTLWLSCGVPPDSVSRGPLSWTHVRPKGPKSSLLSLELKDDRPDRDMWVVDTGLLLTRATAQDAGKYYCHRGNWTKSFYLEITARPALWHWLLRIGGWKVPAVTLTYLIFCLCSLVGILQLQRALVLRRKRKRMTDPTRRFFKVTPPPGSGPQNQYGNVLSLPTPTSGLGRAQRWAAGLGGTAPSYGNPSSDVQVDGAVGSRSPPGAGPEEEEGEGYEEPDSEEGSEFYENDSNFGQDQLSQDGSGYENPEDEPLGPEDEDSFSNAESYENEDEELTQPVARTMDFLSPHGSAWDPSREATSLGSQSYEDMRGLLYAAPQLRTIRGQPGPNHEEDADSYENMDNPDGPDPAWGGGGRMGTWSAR

mouse CD19 = target: T2, mouse CD19 (mouse, UniProt P25918 19-547); assay: FACS on B-cells of the respective species
T2 construct: whole, on cells
T2 sequence (looked up): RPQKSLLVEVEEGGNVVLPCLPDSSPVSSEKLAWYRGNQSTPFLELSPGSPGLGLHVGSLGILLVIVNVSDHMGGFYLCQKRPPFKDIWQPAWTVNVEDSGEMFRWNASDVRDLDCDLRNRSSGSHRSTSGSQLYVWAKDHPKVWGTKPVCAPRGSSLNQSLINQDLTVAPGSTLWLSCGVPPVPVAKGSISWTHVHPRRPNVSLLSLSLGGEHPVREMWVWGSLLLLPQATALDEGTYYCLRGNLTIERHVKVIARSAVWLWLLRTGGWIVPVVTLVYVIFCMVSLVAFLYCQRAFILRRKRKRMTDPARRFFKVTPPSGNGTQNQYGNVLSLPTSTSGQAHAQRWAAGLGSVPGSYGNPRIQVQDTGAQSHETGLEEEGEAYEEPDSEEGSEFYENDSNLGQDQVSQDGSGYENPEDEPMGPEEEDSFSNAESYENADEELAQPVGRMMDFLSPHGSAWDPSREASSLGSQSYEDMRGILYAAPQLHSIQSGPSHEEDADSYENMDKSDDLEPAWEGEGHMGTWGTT

rabbit CD19 = target: T3, rabbit CD19 (rabbit, UniProt G1TWR4 20-543); assay: FACS on B-cells of the respective species
T3 construct: whole, on cells
T3 sequence: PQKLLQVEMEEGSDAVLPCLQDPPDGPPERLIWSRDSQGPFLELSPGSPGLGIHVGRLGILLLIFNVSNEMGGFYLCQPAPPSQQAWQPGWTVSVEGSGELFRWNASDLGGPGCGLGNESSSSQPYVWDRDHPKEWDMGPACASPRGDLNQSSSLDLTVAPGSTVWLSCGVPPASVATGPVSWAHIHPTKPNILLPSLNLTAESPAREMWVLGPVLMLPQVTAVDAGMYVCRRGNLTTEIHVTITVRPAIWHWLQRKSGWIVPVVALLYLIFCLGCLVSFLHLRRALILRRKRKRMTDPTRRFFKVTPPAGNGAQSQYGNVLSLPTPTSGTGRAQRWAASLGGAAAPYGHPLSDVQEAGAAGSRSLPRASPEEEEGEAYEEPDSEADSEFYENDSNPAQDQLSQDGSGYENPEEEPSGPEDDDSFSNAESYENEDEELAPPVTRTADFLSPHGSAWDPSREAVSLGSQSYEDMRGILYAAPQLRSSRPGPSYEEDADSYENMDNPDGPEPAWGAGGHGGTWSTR

[1] = target: T4, human B-lymphocyte antigen CD19 (human, UniProt P15391 20-556); assay: FACS binding on Daudi cells, goat anti-mouse RPE detection
T4 construct: whole, on cells; Always presented on cells; No soluble CD19 was used; also called hCD19; human CD 19
T4 sequence (looked up): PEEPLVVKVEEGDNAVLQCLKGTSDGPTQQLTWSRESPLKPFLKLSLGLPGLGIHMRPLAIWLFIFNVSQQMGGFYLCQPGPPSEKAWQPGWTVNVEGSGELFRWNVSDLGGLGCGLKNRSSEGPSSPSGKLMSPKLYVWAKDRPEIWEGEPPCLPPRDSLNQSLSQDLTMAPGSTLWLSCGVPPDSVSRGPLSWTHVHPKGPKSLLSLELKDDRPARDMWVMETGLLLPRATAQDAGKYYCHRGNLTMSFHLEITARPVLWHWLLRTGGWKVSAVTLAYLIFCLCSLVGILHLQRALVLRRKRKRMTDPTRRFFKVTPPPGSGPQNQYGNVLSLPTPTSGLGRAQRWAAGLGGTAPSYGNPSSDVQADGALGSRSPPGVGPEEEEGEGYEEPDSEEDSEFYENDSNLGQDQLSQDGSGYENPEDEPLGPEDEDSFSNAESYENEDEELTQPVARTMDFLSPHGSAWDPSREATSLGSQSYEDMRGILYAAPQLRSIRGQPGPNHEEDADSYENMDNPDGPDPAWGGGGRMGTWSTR

[2] = target: T4, human B-lymphocyte antigen CD19; assay: cell-based or functional assay
[3] = target: T4, human B-lymphocyte antigen CD19; assay: cell ELISA on human CD19-transfected NIH3T3 cells against untransfected NIH3T3 cells

B1: Mab381 (antibody, V domains shown)
VH: QVQLQQSGAELVRPGSSMKISCKASGYAFSSYWMNWVKQRPGQGLEWIGQIYPGDGDINYSGKFKGKVTLTADKSSSTAYMQLSSLTSEDSAVYFCARTITTVVGYVMDYWGQGTSVTVSS
VL: DIVMTQSHKFMSTSVGDRVSITCKASQDVGTVVAWYQQKPGQSPKLLIYWASTRHTGVPDRFTGSGSGTDFTLTISNVQSEDLADYFCQQYSSYPYTFGGGTKLEIKR
notes: Murine monoclonal antibody purified from hybridoma 8C3
B1: no binding (cynomolgus CD19); no binding (mouse CD19); no binding (rabbit CD19). The EC50 [1] was 1.45 nM, the “EC50 of inhibition of Ca2+ influx in anti-IgM activated Ramos cells” value [2] was 0.37 nM and 56 ng/ml and the “ratio OD NIH3T3 CD 19 to OD NIH3T3 untransfected” value [3] was 11.4.
